From PMC5499601 (Nucleic Acids Research, 2017)
Where a chain is given by its changes, count along the chain named. Numbers in names are those of the source.

B1: wild-type Bacillus subtilis Spo0J (BsSpo0J) (natural protein)
chain: MAKGLGKGINALFNQVDLSEETVEEIKIADLRPNPYQPRKHFDDEALAELKESVLQHGILQPLIVRKSLKGYDIVAGERRFRAAKLAGLDTVPAIVRELSEALMREIALLENLQREDLSPLEEAQAYDSLLKHLDLTQEQLAKRLGKSRPHIANHLRLLTLPENIQQLIAEGTLSMGHGRTLLGLKNKNKLEPLVQKVIAEQLNVRQLEQLIQQLNQNVPRETKKKEPVKDAVLKERESYLQNYFGTTVNIKRQKKKGKIEIEFFSNEDLDRILELLSERES
B2: BsSpo0J R79A (natural protein)
chain: B1 chain with R79A
B3: BsSpo0J G77S (natural protein)
chain: B1 chain with G77S
B4: BsSpo0J P62A (natural protein)
chain: B1 chain with P62A
B5: BsSpo0J R105E (natural protein)
chain: B1 chain with R105E

Target: the molecule itself
Assay: SEC

| Protein | stoichiometry N |
| --- | --- |
| B1 | 2 |
| B2 | 2 |
| B3 | 2 |
| B4 | 2 |
| B5 | 2 |
